# According to patent publication US5457092A, “Methods of promoting bone growth in mammals comprising administration of modified parathyroid hormone” (Gesellschaft fur Biotechnologische Forschung mbH (GBF), priority 1987, dated 1995):
# Key:
# [1] = tested on: osteoblast enriched rat embryo calvaria cell cultures; assay: Cyclic AMP production in rat embryo calvaria cell cultures; format: cell-based
# Description: (§1) FIG. 10 is a graphical representation showing the dose dependent stimulation by bPTH (1-84) of osteoblast enriched rat embryo calvaria cell cultures. Experimental details for the determination of cyclic AMP (.quadrature.) (15 min after stimulation) and incorporation of [^3 H]thymidine into DNA ( ) and CK ( ) specific activity (24 h after stimulation) are given below. The results are means ±S.E.M., N≥5. In several cases the S.E.M. was less than the size of the symbol. Control values were: cyclic AMP, 25±5 pmol/mg of protein; DNA, 240±30 c.p.m./μg of DNA; CK, 200±20 nmol/min per mg of protein. Statistical significance of differences between treated and corresponding control groups by Student's T test: *P<0.05; **P<0.01.
# (§2) Rat calvaria cultures were treated with fragments of PTH derived from the central portion of the molecule.
# [2] = tested on: osteoblast enriched rat embryo calvaria cell cultures; assay: CK specific activity in rat embryo calvaria cell cultures; format: cell-based; settings: for increase of CK activity (in words): treated for 24 h
# Description: as §1, §2
# [3] = tested on: osteoblast enriched rat embryo calvaria cell cultures; assay: DNA synthesis ([3H]thymidine incorporation) in rat embryo calvaria cell cultures; format: cell-based
# Description: as §1
# [4] = tested on: ROS 17/2.8 osteoblast-like cells; assay: Cyclic AMP production in ROS 17/2.8 osteoblast-like cells; format: cell-based, rat; settings: for Cyclic AMP, effect of fragment (experimental value/control value): control 29 ± 5.2 pmol/mg of protein
# Description: When cultures of the widely used model for osteoblasts, the osteoblast-likeclone of rat osteosarcoma, ROS 17/2.8 (Endocrinology (Baltimore), 107 (1980) 1494-1503=12; Majeska et al.), were incubated with full-length PTH and PTH fragments (Table 4), cyclic AMP production was stimulated only by bPTH(1-84) and hPTH(1-34), whereas hPTH(25-39), hPTH(27-48), hPTH(28-48) and hPTH(34-47) were ineffective.
# [5] = tested on: ROS 17/2.8 osteoblast-like cells; assay: CK specific activity in ROS 17/2.8 osteoblast-like cells; format: cell-based, rat; settings: control 698 ± 70 nmol/min per mg of protein
# [6] = tested on: ROS 17/2.8 osteoblast-like cells; assay: DNA synthesis in ROS 17/2.8 osteoblast-like cells; format: cell-based, rat; settings: control 392 ± 58 c.p.m./μg of DNA
# [7] = tested on: rat organs (epiphysis, diaphysis, kidney); assay: CK specific activity in rat organs after i.p. injection; format: in vivo; settings: i.p., 4 h later
# Description: FIG. 13 is a graph showing the time-dependent stimulation by hPTH (28-48) of CK specific activity in rat organs. Female rats (20-25 days old) were injected i.p. with hPTH-(28-48) (1.25 μg/rat). Experimental details are as described for FIG. 10. (a) Diaphysis, (b) epiphysis, (c) kidney. *P<0.05, **P<0.01 versus controls.
# FIG. 14 is a graph showing the dose-dependent stimulation of CK specific activity by hPTH (1-34) in rat organs. Female rats (20-25 days old) were injected i.p. with hPTH-(1-34). At 4 h later, rats were killed and extracts were prepared and assayed as described below. Experimental details are as described for FIG. 10 (a) Diaphysis, (b) epiphysis, (c) kidney. *P<0.05, ** P<0.01 versus controls.
# FIG. 15 is a graph showing the dose-dependent stimulation of CK specific activity by hPTH (28-48) in rat organs. Female rats (20-25 days old) were injected i.p. with hPTH-(28-48). Experimental details are as described for FIG. 13 (a) Diaphysis, (b) epiphysis, (c) kidney. *P<0.05, **P<0.01 versus controls.
# FIG. 16 is a graph showing the […] stimulation by bPTH (1-84) of CK specific activity in rat organs. Female rats (20-25 days old) were injected i.p. with bPTH-(1-84) (3.5 μg/rat). At the times indicated, the rats were killed and the diaphyses (a) and epiphyses (b) of long bones as well as the kidneys (c) were collected and homogenized. Extracts were prepared and assayed as described below. Results are means ±S.E.M for π=5. Statistical significance of differences between treated and control groups by Student's T test: *P<0.05; **P<0.01. Note that the activity scales differ for different organs.
# Kidneys, tibia and femur were excised; the epiphyses or diaphyses of the long bones were collected and washed thoroughly with cold 0.9% NaCl. The bones were split open lengthwise and the marrow was scraped out. Organs were homogenized in ice-cold buffer containing 50 mM-Tris/HCl (pH 6.8), 5 mH-magnesium acetate. 2.5 mM-dithiothreitol, 0.4 mM-EDTA and 250 mM-sucrose using a Polytron homogenizer in 10 s bursts with intervening cooling periods. Supernatant extracts were obtained by centrifugation at 12000 g for 5 min at 4° C. CK activity was measured at 30° C. in a Gilford 250 automatic recording spectrophotometer at 340 nm using a coupled assay for ATP, in 0.5 ml of incubation mixture containing 50 mM-imidazole acetate buffer (pH 6.7), 25 mM-phosphocreatine, 20 mM-N-acetylcysteine, 20 mM-D-glucose, 10 mM-magnesium acetate, 5 mM-EDTA, 2 mM-ADP, 2 mM-NAD+, 2 mM-dithiothreitol, 50 μM-diadenosine pentaphosphate (adenylate kinase inhibitor), 5 μg of bovine serum albumin. 1.2 units of glucose-6-phosphate dehydrogenase and 0.8 units of hexokinase. Protein was determined by the Coomassie Brilliant Blue dye-binding method, with bovine serum albumin as the standard.
# [8] = tested on: rat organs (epiphysis, diaphysis, kidney); assay: [3H]thymidine incorporation into DNA in rat organs after i.p. injection; format: in vivo
# Description: FIG. 12 is a graph showing the time course of stimulation by hPTH (1-34) of DNA synthesis in rat organs. Female rats (20-25 days old) were injected i.p. with hPTH-(1-34) (2 μg/rat). At 2 h before the times indicated, the rats were killed and organs were removed and incubated in 2 ml of Dulbecco's modified Eagle's medium containing 5 μl of [^3 H]thymidine. (Amersham: 5 Ci/mmol) for 2 h, then washed with medium and homogenized in deionized distilled water. The total uptake of [^3 H]thymidine and acid-insoluble radioactivity was measured, as well as DNA content, as described below. , Diaphysis; O, epiphysis; Δ; kidney. P<0.01 versus controls.
# The pieces were then incubated for 2 h more (the time indicated in FIG. 12) with [^3 H]thymidine (5 μci/ml; 5 Ci/mmol) at 37° C. in Dulbecco's modified Eagle's medium under an atmosphere Of […] /95% air. Total [^3 H]thymidine uptake and incorporation into trichloroacetic acid-insoluble material was measured as described in Biochem. J., 214 (1983) 293-298 (16; Somjen et al.). At no time including the 22 24 h pulse, was there any significant change in the total uptake of [^3 H]thymidine which reflects changes in the thymidine pool which, in turn, could account for changes in incorporation. DNA was determined by the Burton method; cf. Biochem. J., 62 (1956) 315-323 (17; Burton).
# To corroborate that under the circumstances of these experiments the increase in CK specific activity in bone is indeed a valid marker of cell proliferation, changes in DNA synthesis were measured by [^3 H]thymidine incorporation; cf. Biochem. J., 272 (1990) 781-785 (18; Somjen et al.). The earliest time at which PTH increased [^3 H]thymidine incorporation was determined by in-jecting rats with an optimal dose of 2 μp of PTH(1-34)/rat, equivalent to 13 nM (FIG. 14) and measuring 2 h pulses of [^3 H)thymidine incorporation into DNA (FIG. 12).
# [9] = tested on: rat organs (epiphysis, diaphysis, kidney); assay: as above; format: in vivo; remark: listed apart in the source
# [10] = tested on: rat epiphysial cartilage cell cultures; assay: CK specific activity in rat epiphysial cartilage cell cultures; format: cell-based
# Description: To compare the stimulations seen in osteoblast-like cells (FIGS. 10 and 11) with PTH effects in a cartilage system, cultures of rat epiphysial cartilage cells were incubated with full-length PTH and selected PTH fragments (Table 3). CK activity was stimulated by bPTH(1-84) and hPTH(28-48) but not by hPTH(25-39) or hPTH(34-47). […] The comparison between the complete molecule and the mid-regional fragment hPTH (28-48) is similar to but not identical with the results obtained for calvaria cell cultures (FIGS. 10 and 11) and in the chick sternum chondrocyte system; cf. Biochem. J., 252 (1988) 263-268 (11; Farndale et al.),
# [11] = tested on: rat epiphysial cartilage cell cultures; assay: DNA synthesis in rat epiphysial cartilage cell cultures; format: cell-based; settings: 10 nM; control 350 ± 25
molecule,measurement,setting,value
CC[C@H](C)[C@H](NC(=O)[C@H](CCC(=O)O)NC(=O)[C@H](CO)NC(=O)[C@@H](NC(=O)[C@@H](N)CO)C(C)C)C(=O)N[C@@H](CCC(N)=O)C(=O)N[C@@H](CC(C)C)C(=O)N[C@@H](CCSC)C(=O)N[C@@H](Cc1c[nH]cn1)C(=O)N[C@@H](CC(N)=O)C(=O)N[C@@H](CC(C)C)C(=O)NCC(=O)N[C@@H](CCCCN)C(=O)N[C@@H](Cc1c[nH]cn1)C(=O)N[C@@H](CC(C)C)C(=O)N[C@@H](CC(N)=O)C(=O)N[C@@H](CO)C(=O)N[C@@H](CCSC)C(=O)N[C@@H](CCC(=O)O)C(=O)N[C@@H](CCCNC(=N)N)C(=O)N[C@H](C(=O)N[C@@H](CCC(=O)O)C(=O)N[C@@H](Cc1c[nH]c2ccccc12)C(=O)N[C@@H](CC(C)C)C(=O)N[C@@H](CCCNC(=N)N)C(=O)N[C@@H](CCCCN)C(=O)N[C@@H](CCCCN)C(=O)N[C@@H](CC(C)C)C(=O)N[C@@H](CCC(N)=O)C(=O)N[C@@H](CC(=O)O)C(=O)N[C@H](C(=O)N[C@@H](Cc1c[nH]cn1)C(=O)N[C@@H](CC(N)=O)C(=O)N[C@@H](Cc1ccccc1)C(=O)O)C(C)C)C(C)C [hPTH(1-34)],stimulation of cyclic AMP production (in words),[1]; treated for 15 min,able to stimulate cyclic AMP formation
same,increase of CK activity (in words),[2],maximally active
same,stimulation of DNA synthesis (in words),[3],maximal
same,stimulation of cyclic AMP production (in words),[4],stimulated
same,"Cyclic AMP, effect of fragment (experimental value/control value)",[4]; 40 nM,4.67 ± 0.09
same,"CK specific activity, effect of fragment (experimental value/control value)",[5]; 40 nM,1.83 ± 0.09
same,"[^3 H]Thymidine incorporation, effect of fragment (experimental value/control value)",[6]; 40 nM,2.06 ± 0.09
same,dose of maximal effect on CK specific activity,[7],2 μg/rat
same,dose giving a significant increase in CK specific activity in all organs,"[7]; diaphysis, epiphysis, kidney",0.4 μg/rat
same,DNA synthesis in the kidney over time (in words),"[8]; 2 μg/rat, equivalent to 13 nM, 2 h pulses",no increase in DNA synthesis at any time
same,DNA synthesis in the diaphysis and the epiphysis at 4 or 16 h (in words),"[8]; 2 μg/rat, 4 or 16 h",no change
same,DNA synthesis in the diaphysis and the epiphysis at 24 h (in words),"[9]; 2 μg/rat, 24 h",significant increase
"bPTH(1-84): full-length (complete) parathyroid hormone, bovine source; comparative example (protein, UniProt P01268 32-115, looked up, Parathyroid hormone) Parathyroid hormone: AVSEIQFMHNLGKHLSSMERVEWLRKKLQDVHNFVALGASIAYRDGSSQRPRKKEDNVLVESHQKSLGEADKADVDVLIKAKPQ","Cyclic AMP concentration, effect of fragment (experimental value/control value)","[1]; 100 nM, 15 min, control 29 ± 2.9 pmol/mg of protein",3.74 ± 0.30
same,"CK specific activity, effect of fragment (experimental value/control value)","[2]; 100 nM, 24 h, control 457 ± 46 nmol/min per mg of protein",2.27 ± 0.09
same,increase of CK activity (in words),[2],maximally active
same,stimulation of DNA synthesis (in words),[3],maximal
same,"[3H)Thymidine incorporation, effect of fragment (experimental value/control value)","[3]; 100 nM, 24 h, control 624 ± 73 c.p.m./μg of DNA",2.61 ± 0.11
same,stimulation of CK activity (in words),[10],stimulated
same,CK specific activity,"[10]; 10 nM, control 225 ± 32",389 ± 39 nmol/min per mg of protein
same,[^3 H]Thymidine incorporation into DNA,[11],556 ± 50 c.p.m./plate
same,stimulation of cyclic AMP production (in words),[4],stimulated
same,"Cyclic AMP, effect of fragment (experimental value/control value)",[4]; 10 nM,4.60 ± 0.10
same,"CK specific activity, effect of fragment (experimental value/control value)",[5]; 10 nM,1.92 ± 0.11
same,"[^3 H]Thymidine incorporation, effect of fragment (experimental value/control value)",[6]; 10 nM,1.71 ± 0.18
same,stimulation of DNA synthesis in the kidney (in words),[8]; 22-24 h after injection,no significant stimulation
same,"[^3 H]thymidine incorporation into DNA, Kidney","[9]; rat, 22-24 h after injection of 3.5 μg, control 9.0 ± 2.1",11.8 ± 2.4 c.p.m./pg of DNA
same,"[^3 H]thymidine incorporation into DNA, Diaphysis","[9]; rat, 22-24 h after injection of 3.5 μg, control 24.1 ± 3.8",43.4 ± 4.7 c.p.m./pg of DNA
same,"[^3 H]thymidine incorporation into DNA, Epiphysis","[9]; rat, 22-24 h after injection of 3.5 μg, control 25.8 ± 5.2",40.7 ± 3.3 c.p.m./pg of DNA
